Key:
Assay in all cases: radiometric HPLC ligase assay, Michaelis-Menten fit
Type in all cases: biochemical, Verrucomicrobium spinosum
[1] = substrate: N[C@H](CCC[C@H](N)C(=O)O)C(=O)O; settings: 100 mM Tris-HCl pH 9.6, 30 mM MgCl2, 37°C, other substrates fixed (standard 5 mM ATP, 150 µM UDP-MurNAc-L-Ala-D-[14C]Glu)
[2] = substrate: CC(=O)N[C@H]1[C@@H](OP(=O)(O)OP(=O)(O)OC[C@H]2O[C@@H](n3ccc(=O)[nH]c3=O)[C@H](O)[C@@H]2O)O[C@H](CO)[C@@H](O)[C@@H]1O[C@H](C)C(=O)N[C@@H](C)C(=O)N[C@H](CCC(=O)O)C(=O)O; settings: 100 mM Tris-HCl pH 9.6, 30 mM MgCl2, 37°C, other substrates fixed (standard 5 mM ATP, 150 µM meso-A2pm), labelled compound (14C in D-Glu)
[3] = substrate: Nc1ncnc2c1ncn2[C@@H]1O[C@H](COP(=O)(O)OP(=O)(O)OP(=O)(O)O)[C@@H](O)[C@H]1O; settings: 100 mM Tris-HCl pH 9.6, 30 mM MgCl2, 37°C, other substrates fixed (standard 150 µM UDP-MurNAc-L-Ala-D-[14C]Glu, 150 µM meso-A2pm)

B1: MurEVs (Verrucomicrobium spinosum) (protein)
chain: MTILRDLIEGLDKPVISGGLDVEVAGLAYDSRLVKPGFVFFALRGVKSDGHDFIPKALAEGAVAIVAETAPPEDCSVTWLHVKNARVALAEMAAAYKGHPARSMAVGGVTGTNGKTTTAFLLHHLLNHAHRRCGLLGTVVYDVGGDLKPATHTTPESLELQGLLSEMRDRGCVAVAMEVSSHAIDQHRTHGVPFAAAVFTNLSQDHLDYHGTMEEYFKAKSKLFSSTAASRSGKLVINVDDIWGRRLVDAHKEHPGLVTYGLGVAADYRAVNPRYDLTGTSFELEHKGRSLLVRIPQIGQFNVYNSLAALAAAHGMGCNLRDTVKAMQSSPQIPGRMERVTPDNHSFHVFVDYAHTPDGLVNALSTARALRPERIITVFGCGGDRDRLKRPLMARAVEEHSDISILTSDNPRTEDPQAIMDDARKGFTRSAHALIADRKEAIHTAIKGAREGDIVVIAGKGHEPYQDVQGVKHPFDDRRVARQLVDIEIRIKGEKRLEARQRRDDRQ
[1]
  Km: 17 ± 3 µM
[2]
  Km: 24 ± 6 µM
[3]
  Km: 290 ± 70 µM
